Results taken from the nanobody polyreactivity screen of Harvey et al. (2022).

Experiment: yeast display, Sf9 membrane polyspecificity reagent, FACS + sequencing; frameworks hold sequencing errors
Method in brief: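 Using colony PCR, genes from sorted yeast display clones were amplified, then sequenced on MiSeq at 2 × 250 and filtered by CDR length. The clones had been stained with 10% biotinylated, detergent-solubilized Sf9 membrane reagent for 1 hour at 4 °C and sorted by FACS into low and high (top ~1%) gates on anti-HA and streptavidin fluorescence. Polyreactivity labels come from the gate of origin.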
In the case of “QVQLVESGGGLVQAGGSLRLSCAASGSTFYLNAMGWYRQAPGKERELVAAISSSGGSKYYADSVKGRFTISRDNAKNTVYLQMNSLKPEDTAVYYCACSCFPAVSVYGGDYWGQGTQVTVSS”, the “polyreactivity (PSR sort gate)” value is reported as “low polyreactivity”.
In the case of “QVQLVESGGGLVQAGGSLRLSCAASGSTFYLYAKGWYRQAPGKEREMVAAITGSGSRTYYADSVKGRFTISRDNAKNTVYLQMHSLNPEDTAVYYCAAKYGWQGGRGRDYWGQGTQVTVSS”, the “polyreactivity (PSR sort gate)” value is reported as “high polyreactivity”.
In the case of “QVQLVESGGGLVQAGGSLRLSCAASGSTFYLYAMGWYRQAPGKERELVAAISWSGGDKYYADSVKGRFTISRDNAKNTVYLQMNSLKPEDTAVYYCAAEITDSYPGSPRRRDYWGQGTQVTVSS”, the “polyreactivity (PSR sort gate)” value is reported as “low polyreactivity”.
With “QVQLVESGGGLVQAGGSLRLSCAASGSTFYLYTMGWYRQAPGKERELVAAINRSGGRTYYADSVKGRFTISRDNAKNTVYLQMNSLKPEDTAVYYCAADLASYAYRYDYWGQGTQVTVSS” the “polyreactivity (PSR sort gate)” value was “high polyreactivity”.
In the case of “QVQLVESGGGLVQAGGSLRLSCAASGSTFYNAMGWYRQAPGKERELVAAITRSGGSTYYADSVKGRFTISRDNAKNTVYLQMNSLKPEDTAVYYCAAKSIIRPSAPRRDDMDYWGQGTQVTVSS”, the “polyreactivity (PSR sort gate)” value is reported as “low polyreactivity”.
With “QVQLVESGGGLVQAGGSLRLSCAASGSTFYNNAMGWYRPAPGKERELVAAISSGGGTYYADSVKGRFTISRDNAKNTVYLQMNSLKPEDTAVYYCAAYFANTTHWGRIKRYDYWGQGTQVTVSS” the “polyreactivity (PSR sort gate)” value was “low polyreactivity”.
For “QVQLVESGGGLVQAGGSLRLSCAASGSTFYNNAMGWYRQAPGKERESVAAITASGGRTYYADSVKGRFTISRDNAKNTVYLQMNSLKPEDTAVYYCAARGFDRYYWGQGTQVTVSS”, the “polyreactivity (PSR sort gate)” value was “high polyreactivity”.
In the case of “QVQLVESGGGLVQAGGSLRLSCAASGSTFYNYVMGWYRQAPGKERELVAVINRSGTRTYYADSVKGRLTISRDNAKITVYLQMNSLKPEDTAVYYCNAELSYPGRYDSWGQGTQVTVSS”, the “polyreactivity (PSR sort gate)” value is reported as “high polyreactivity”.
For “QVQLVESGGGLVQAGGSLRLSCAASGSTFYPNAMGWYRQAPGKERELVAAITDSVGTTNYADSVKGRFTISRDNAKNTVYLQMNSLKPEDTAVYYCAKVKSYWNGYRYYYWGQGTQVTVSS”, the “polyreactivity (PSR sort gate)” value was “low polyreactivity”.
With “QVQLVESGGGLVQAGGSLRLSCAASGSTFYPYAMGWYRLAPGKERELVAVISSGGSTNYADSVKGRFTISRDNAKNTVYLQMNSLKPEDTAVYYCAADLAVYYIFLALEFNYWGQGTQVTVSS” the “polyreactivity (PSR sort gate)” value was “low polyreactivity”.
With “QVQLVESGGGLVQAGGSLRLSCAASGSTFYPYAMGWYRQAPGKEREFVAAISGRGGSTFYADSVKGRFTISRDNAKNTVYIQMNSLKPEDTAVYYCAASVFKLVGYDYWGQGTQVTLSS” the “polyreactivity (PSR sort gate)” value was “high polyreactivity”.
In the case of “QVQLVESGGGLVQAGGSLRLSCAASGSTFYPYAMGWYRQAPGKERELVAAISRIGSRTYYADSVKGRFTISRDNAKNTVYLQMNSLKPEDTAVYYCNASYVLTGQRYGYWGQGTQVTVSS”, the “polyreactivity (PSR sort gate)” value is reported as “low polyreactivity”.
With “QVQLVESGGGLVQAGGSLRLSCAASGSTFYPYAMGWYRQAPGKERELVAAISSGGSTSYADSVKGRFTISRDNAKNTVYLQMNSLKPEDTAVYYCNASSPGAVPVYDYDYWGQGTQVTVSS” the “polyreactivity (PSR sort gate)” value was “low polyreactivity”.
For “QVQLVESGGGLVQAGGSLRLSCAASGSTFYPYAMGWYRQAPGKERELVAAISSGGSTYYADSVKGRFTISRDNAKNTVYLQMNSLKPQDTAVYYCAADFYYAYYWGQGTQVTVSS”, the “polyreactivity (PSR sort gate)” value was “low polyreactivity”.
In the case of “QVQLVESGGGLVQAGGSLRLSCAASGSTFYPYAMGWYRQAPGKERELVAAISYSGGSTYYADSVKGRFTISRDNAKNTVYLQMNSLKPEDSAVYYCAAYYRRQFTSYGNYYYWGQGTQVTLSS”, the “polyreactivity (PSR sort gate)” value is reported as “high polyreactivity”.
In the case of “QVQLVESGGGLVQAGGSLRLSCAASGSTFYPYAMGWYRQAPGKERELVAAITSGGRTYYADSVKGRFTISRDNAKNTVYLQMNSLKPEDTAVYYCAALQYRRLRDYRHDYWGQGTQVTVSS”, the “polyreactivity (PSR sort gate)” value is reported as “high polyreactivity”.
For “QVQLVESGGGLVQAGGSLRLSCAASGSTFYPYAMGWYRQAPGKERELVAAITSSGGSTYYADSVKGRFTISRDNAKNTVYLQMNSLKPEDSAVYYCAKLHVPPVHYDYWGQGTQVTVSS”, the “polyreactivity (PSR sort gate)” value was “low polyreactivity”.
With “QVQLVESGGGLVQAGGSLRLSCAASGSTFYPYAMGWYRQAPGKERELVADITNSGSTYYADSVKGRFTISRDNAKNTVYLQMNSLKPEDTAVYYCAARVYSVADYYYWGQGTQVTVSS” the “polyreactivity (PSR sort gate)” value was “low polyreactivity”.
In the case of “QVQLVESGGGLVQAGGSLRLSCAASGSTFYPYAMGWYRQAPGKERELVASITTDDGSTYYADSVKGRFTISRDNAKNTVYLQMNSLKPEDTAVYYCAARFRGFAVDWYPFRQGDYWGQGTQVTVSS”, the “polyreactivity (PSR sort gate)” value is reported as “low polyreactivity”.
In the case of “QVQLVESGGGLVQAGGSLRLSCAASGSTFYPYAMGWYRQAPGKERELVAVISWRGGSTYYADSVKGRFTISRDNAKNTVYLQMNSLKPEDTAVYYCGASGYRGYEYWGQGTQVTVSS”, the “polyreactivity (PSR sort gate)” value is reported as “high polyreactivity”.
With “QVQLVESGGGLVQAGGSLRLSCAASGSTFYPYFMGWYRQAPAKEREFVAAISKSGGSTYYADSVKGRFTISRDNAKNTVYLQMNSLKPEDTAVYYCNKKVGSYYRSYYYWGQGTQVTVSS” the “polyreactivity (PSR sort gate)” value was “high polyreactivity”.
In the case of “QVQLVESGGGLVQAGGSLRLSCAASGSTFYQYDMGWSRQAPGKERELVATISWSATSTYYADSVKGRFTISRDNAKNTVYLQMNSLKPEDTAVYYCNADLGDVYGWLHYDYWGQGTQVTVSS”, the “polyreactivity (PSR sort gate)” value is reported as “low polyreactivity”.
In the case of “QVQLVESGGGLVQAGGSLRLSCAASGSTFYRNAMGWSRPAPGKERELVAAINKSGGRTYYADSVKGRFTISRDNAKNTVYLQMNSLKPEDTAVYYCAAGVSVDLDYWGQGTQVTVSS”, the “polyreactivity (PSR sort gate)” value is reported as “high polyreactivity”.
With “QVQLVESGGGLVQAGGSLRLSCAASGSTFYRNAMGWYRQAPGKERELVAAISGSGARTYYADSVKGRFTISRDNAKNTVYLQMNSLKPEDTAVYYCNAKRYFRNHFRTGGMYYWGQGTQVTVSS” the “polyreactivity (PSR sort gate)” value was “high polyreactivity”.
In the case of “QVQLVESGGGLVQAGGSLRLSCAASGSTFYRNAMGWYRQAPGKERELVAAISSTGGSTYYADSVKGRFTISRDNAKNTVYLQMNSLKAEDTAVYYCAVDPGLTKGFGYWGQGTHVTVSS”, the “polyreactivity (PSR sort gate)” value is reported as “low polyreactivity”.
In the case of “QVQLVESGGGLVQAGGSLRLSCAASGSTFYRNAMGWYRQAPGKERELVAAITWSGGTTYYADSVKGRFTISRDNAKNTVYLQMNSLKPEDTAVYYCAARFILAPRRGYNAYKYYYWGQGTQVTVSS”, the “polyreactivity (PSR sort gate)” value is reported as “high polyreactivity”.
For “QVQLVESGGGLVQAGGSLRLSCAASGSTFYRNTMGWYRQAPGKERELVAAIRRSGSSTYYADSVKGRFTISRDNAKNTVYLQMNSLKPDDTAVYYCAKEGLSYRYYYCGQGTQVTVSS”, the “polyreactivity (PSR sort gate)” value was “high polyreactivity”.
In the case of “QVQLVESGGGLVQAGGSLRLSCAASGSTFYRYAMGCYRQAPGKERELVAAISSRGGSTYYADSVKGRFTISRDNAKNTVYLQMNSLKPEDTAVYYCAAQVYGTAGYYYWGQGTQVTVSS”, the “polyreactivity (PSR sort gate)” value is reported as “high polyreactivity”.
With “QVQLVESGGGLVQAGGSLRLSCAASGSTFYRYAMGWYRQAPGKEREFVAAISRSGGSTYYADSVKGRFTISRDNAKNTVYLQMNSLKPEDTAVYYCNKYYWYPYGRAHYYGYWGQGTQVTVSS” the “polyreactivity (PSR sort gate)” value was “high polyreactivity”.
With “QVQLVESGGGLVQAGGSLRLSCAASGSTFYRYAMGWYRQAPGKERELVAAISRNGGSTYYSDSVKGRFTISRDNAKNTVYLQMNSLKPEDTAVYYCAAVWPYGSRVAPMDYWGQGTQVTVSS” the “polyreactivity (PSR sort gate)” value was “high polyreactivity”.
